{"source": "paper PMC4820699", "about": "“Localisation and protein-protein interactions of the Helicobacter pylori taxis sensor TlpD and their connection to metabolic functions” (Scientific Reports, 2016)", "molecular_target": "T1, purified recombinant H. pylori catalase (KatA) (H. pylori, UniProt P77872 1-505)", "T1 construct": "Catalase KatA of Helicobacter pylori, recombinant, active, tag-free; source: E. coli, recombinant, tag-free, purified", "T1 sequence": "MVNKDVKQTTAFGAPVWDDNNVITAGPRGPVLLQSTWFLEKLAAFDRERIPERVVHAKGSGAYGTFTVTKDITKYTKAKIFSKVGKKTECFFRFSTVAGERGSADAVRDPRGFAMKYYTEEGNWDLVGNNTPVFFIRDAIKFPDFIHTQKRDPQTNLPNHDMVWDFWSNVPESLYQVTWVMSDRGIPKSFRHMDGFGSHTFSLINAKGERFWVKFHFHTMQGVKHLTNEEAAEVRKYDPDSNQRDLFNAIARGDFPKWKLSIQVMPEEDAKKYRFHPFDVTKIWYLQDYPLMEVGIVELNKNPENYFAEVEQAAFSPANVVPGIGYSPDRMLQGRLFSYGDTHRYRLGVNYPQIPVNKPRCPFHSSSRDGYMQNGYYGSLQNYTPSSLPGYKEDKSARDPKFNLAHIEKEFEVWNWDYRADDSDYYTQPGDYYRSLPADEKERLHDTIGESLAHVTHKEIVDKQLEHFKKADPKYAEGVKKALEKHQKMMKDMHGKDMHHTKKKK", "experiment": "BLI; Octet RED96; inverse setting: ligand KatA (tag-free) coupled to the sensor via free amine groups, analyte TlpD-V5 at 200, 400 and 2,000 nM in assay buffer, association 1,800 sec; two-state parallel binding model", "conditions": "both partners purified"}
{"binder": "TlpD-V5 (purified from H. pylori) (natural protein, Transducer-like protein / energy taxis sensor TlpD of Helicobacter pylori; tlpD-V5 fusion gene with the potential tlpD promoter region in pHel2; also called TlpD (V5-tagged); native TlpD-V5; not shown: V5, C-terminal, kept) not shown", "values": [{"measurement": "KD (fast on, slow off; two-state parallel model)", "value": 275, "unit": "nM"}, {"measurement": "KD (slow on, fast off; two-state parallel model)", "value": 2, "unit": "µM"}]}
